± gives the standard deviation.

Drawing on the supplement of paper PMC10567573, this text covers protein stability index for 29 sequences.

The nature of this data set: protein stability index of a GFP-peptide fusion (GPS, HEK-293T) (PSI 1-6); higher = more stable. Particulars: c terminus: a fixed tail appended.
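Note: 24-mer peptide tiles fused after GFP, lentivirally expressed, FACS-sorted into six equal bins by GFP/DsRed ratio, decoded by Illumina sequencing, PSI is the read-weighted mean bin number.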

Regarding QNQSDSLLALAGAVQRLEGALWGL [SCARA5], the protein stability index stood at 2.4 ± 0.35 (treatment: DMSO) and 2.33 ± 0.32 (treatment: MLN4924 1 uM, 8 h).

As for QNVARIPEFELLWKDIIHNPQALS [INTS3], the protein stability index reads like this: (treatment: DMSO) 2.47 ± 0.34; (treatment: MLN4924 1 uM, 8 h) 2.53 ± 0.3.

Turning to QPWVEVVLALRNMKNLLFSEMWDI [MFSD9], the protein stability index runs as follows: (treatment: DMSO) 2.78 ± 0.66; (treatment: MLN4924 1 uM, 8 h) 2.44 ± 0.44.

QPYTCSICRRNFSRRSSLLRHQKL [ZNF75A]: the protein stability index worked out at 3.43 ± 0.37 (treatment: DMSO) and 3.71 ± 0.35 (treatment: MLN4924 1 uM, 8 h).

Turning to QQGLGASYRTESAQRQACMYASSA [TBX5], the protein stability index worked out at 3.8 ± 0.17 (treatment: DMSO) and 3.82 ± 0.2 (treatment: MLN4924 1 uM, 8 h).

With QQMVASGTGAVVTSLFMTPLDVVK [SLC25A39], the protein stability index runs as follows: (treatment: DMSO) 2.8 ± 0.17; (treatment: MLN4924 1 uM, 8 h) 2.98 ± 0.21.

For QQTGDDDEVDDFEDFIFSHFFGDK [PBXIP1], the protein stability index amounted to 4.71 ± 0.51 (treatment: DMSO) and 4.9 ± 0.23 (treatment: MLN4924 1 uM, 8 h).

Turning to QRRRRVENAGGSPSPEPAGRRAAL [RSAD1], the protein stability index by setting is: (treatment: DMSO) 5.11 ± 0.4; (treatment: MLN4924 1 uM, 8 h) 5.15 ± 0.27.

As for QRTAKGKPVLAKDSSNPYPNFNFN [AASDHPPT], the protein stability index is, setting by setting: (treatment: DMSO) 3.43 ± 0.45; (treatment: MLN4924 1 uM, 8 h) 3.74 ± 0.15.

For QSERQRHESQQLATETQALAQRTQ [TEKT4], the protein stability index is, setting by setting: (treatment: DMSO) 5.43 ± 0.21; (treatment: MLN4924 1 uM, 8 h) 5.32 ± 0.16.

Regarding QSLPKASPVTTSPTAATTQNPVLS [LCOR], the protein stability index (treatment: DMSO) amounted to 4.92 ± 0.19 and the protein stability index (treatment: MLN4924 1 uM, 8 h) was found to be 4.85 ± 0.21.

The sequence QSNLEPLSPMTASSFLSFAELFSY [FEM1A] yielded a protein stability index (treatment: DMSO) of 2.26 ± 0.26 and a protein stability index (treatment: MLN4924 1 uM, 8 h) of 2.42 ± 0.3.

In turn, QSRSFRILAHLTGTEFMQDPDEEH [PDLIM7] returned a protein stability index (treatment: DMSO) of 3.95 ± 0.11 and a protein stability index (treatment: MLN4924 1 uM, 8 h) of 4.17 ± 0.07.

For QTEKLLQFQDLTGIESMDQCRHTL [FAF2], the protein stability index runs as follows: (treatment: DMSO) 3.82 ± 0.21; (treatment: MLN4924 1 uM, 8 h) 3.66 ± 0.33.

For QTFQWVKLPATMPEPVYFHCAAVT [KLHDC10], the protein stability index came to 2.28 ± 0.36 (treatment: DMSO) and 2.33 ± 0.39 (treatment: MLN4924 1 uM, 8 h).

With QVAKTKQQIEEQRVQVQVVERAQQ [FLOT1], the protein stability index is, setting by setting: (treatment: DMSO) 5.18 ± 0.16; (treatment: MLN4924 1 uM, 8 h) 5.32 ± 0.15.

As for QVEALAAAGVDHVILAVSYMSQVL [GMPPB], the protein stability index is 2.92 ± 0.65 (treatment: DMSO) and 2.48 ± 0.45 (treatment: MLN4924 1 uM, 8 h).

Consider QVFLDRINRADYCPECYPDNPANR [TOR1AIP2], for which the protein stability index by setting is: (treatment: DMSO) 2.76 ± 0.33; (treatment: MLN4924 1 uM, 8 h) 2.9 ± 0.28.

Turning to QVTCSILAYLPFKLEKSIDSYYRL [PCDHGA10], the protein stability index runs as follows: (treatment: DMSO) 2.79 ± 1.1; (treatment: MLN4924 1 uM, 8 h) 2.05 ± 0.81.

QVVSQGWKYFKGNFYYFSLIPKTW [CD207]: the protein stability index runs as follows: (treatment: DMSO) 2.14 ± 0.41; (treatment: MLN4924 1 uM, 8 h) 2.1 ± 0.39.

Consider QYAMTRAQRVRAAMFPETLDEGMQ [CTNNB1], for which the protein stability index reads like this: (treatment: DMSO) 3.76 ± 0.29; (treatment: MLN4924 1 uM, 8 h) 3.68 ± 0.39.

Take QYEVSNFARNGALSTHNWTYWQCG [RSAD1]: the protein stability index turned out to be 2.43 ± 0.25 (treatment: DMSO) and 2.05 ± 0.23 (treatment: MLN4924 1 uM, 8 h).

Take QYQANKVTHTLTMRQRISRVEESA [PPEF2]: the protein stability index by setting is: (treatment: DMSO) 3.65 ± 0.16; (treatment: MLN4924 1 uM, 8 h) 3.77 ± 0.16.

In the case of QYRPSDLLCPETYVWVPIEQCLPS [ATE1], the protein stability index is, setting by setting: (treatment: DMSO) 2.28 ± 0.23; (treatment: MLN4924 1 uM, 8 h) 2.47 ± 0.28.

On to RAGEGFIICYSITDRRSFHEVREF [RIT1], for which the protein stability index is 3.04 ± 0.81 (treatment: DMSO) and 2.48 ± 0.71 (treatment: MLN4924 1 uM, 8 h).

Sequence RASFWLALVGCVISDNPERYSTNL [EDNRA] yielded a protein stability index (treatment: DMSO) of 2.85 ± 0.68 and a protein stability index (treatment: MLN4924 1 uM, 8 h) of 2.97 ± 0.62.

With RCEMEAQNQEYKMLLDIKTRLEQE [KRT15], the protein stability index is, setting by setting: (treatment: DMSO) 4.44 ± 0.17; (treatment: MLN4924 1 uM, 8 h) 4.6 ± 0.18.

With RDIDLKNRRGGPPFAFVEFEDPRD [SRSF1], the protein stability index stood at 4.03 ± 0.35 (treatment: DMSO) and 4.27 ± 0.18 (treatment: MLN4924 1 uM, 8 h).

For the sequence RDSLTQPDEEPMHYGNIMYDRRVI [RSPH3], the protein stability index by setting is: (treatment: DMSO) 3.62 ± 0.45; (treatment: MLN4924 1 uM, 8 h) 3.8 ± 0.23.
